Assay results from patent US20210095002A1 (Hoffmann-La Roche, published 2021).

Key:
[1] = target: T1, biotinylated murine 4-1BB Fc(kih) (murine, UniProt P20334 24-187, biotinylated); assay: SPR (Biacore T200, 25 C): biotinylated murine 4-1BB Fc(kih) on SA chip, construct at 200 nM as first analyte, murine FAP at 500 nM as second analyte
T1 construct: also called immobilized murine 4-1BB
T1 sequence: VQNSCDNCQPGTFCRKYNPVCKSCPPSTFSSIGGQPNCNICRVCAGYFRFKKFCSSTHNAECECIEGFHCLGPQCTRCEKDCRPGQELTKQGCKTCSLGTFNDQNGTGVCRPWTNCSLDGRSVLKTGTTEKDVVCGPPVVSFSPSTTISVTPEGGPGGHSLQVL

murine FAP = target: T2, murine FAP (mouse, UniProt P97321 27-761); assay: SPR simultaneous binding, figure legend (FIG. 2C)
T2 construct: also called mouse FAP
T2 sequence (P97321 27-761 limits assumed): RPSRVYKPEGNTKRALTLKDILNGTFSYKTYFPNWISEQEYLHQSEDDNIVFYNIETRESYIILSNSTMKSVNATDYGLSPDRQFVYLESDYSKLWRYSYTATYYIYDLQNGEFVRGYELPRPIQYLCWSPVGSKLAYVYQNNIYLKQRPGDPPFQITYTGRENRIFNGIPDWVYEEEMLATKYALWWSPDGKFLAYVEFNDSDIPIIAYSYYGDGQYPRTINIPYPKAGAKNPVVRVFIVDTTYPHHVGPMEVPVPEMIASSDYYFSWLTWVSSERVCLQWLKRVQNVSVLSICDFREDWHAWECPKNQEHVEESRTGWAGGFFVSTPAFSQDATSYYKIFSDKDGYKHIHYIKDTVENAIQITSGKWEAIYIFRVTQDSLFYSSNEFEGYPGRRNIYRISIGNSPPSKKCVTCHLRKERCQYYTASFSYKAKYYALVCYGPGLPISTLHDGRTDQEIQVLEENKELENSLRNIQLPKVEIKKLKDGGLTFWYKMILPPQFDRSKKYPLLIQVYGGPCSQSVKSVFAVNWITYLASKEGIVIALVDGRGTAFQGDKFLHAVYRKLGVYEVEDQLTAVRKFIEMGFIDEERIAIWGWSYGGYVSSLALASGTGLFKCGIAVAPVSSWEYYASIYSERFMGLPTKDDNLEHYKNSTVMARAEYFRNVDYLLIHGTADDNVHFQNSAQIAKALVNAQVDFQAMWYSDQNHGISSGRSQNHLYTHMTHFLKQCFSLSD
Procedure: The capacity of binding simultaneously murine 4-1BB Fc(kih) and murine FAP was assessed by surface plasmon resonance (SPR) in the manner as described in WO 2016/075278 A1. All SPR experiments were performed on a Biacore T200 at 25° C. with HBS-EP as running buffer (0.01 M HEPES pH 7.4, 0.15 M NaCl, 3 mM EDTA, 0.005% Surfactant P20, Biacore, Freiburg/Germany). Biotinylated murine 4-1BB Fc(kih) was directly coupled to a flow cell of a streptavidin (SA) sensor chip. Immobilization levels up to 600 resonance units (RU) were used.
The FAP-targeted 4-1BB constructs were passed at a concentration range of 200 nM with a flow of 30 μL/minute through the flow cells over 90 seconds and dissociation was set to zero sec. Murine FAP was injected as second analyte with a flow of 30 μL/minute through the flow cells over 90 seconds at a concentration of 500 nM. The dissociation was monitored for 120 sec. Bulk refractive index differences were corrected for by subtracting the response obtained in a reference flow cell, where no protein was immobilized.

binding result [1]: binds
binding result (murine FAP): binds
B1: 4-1BB (MU137-1)/FAP(28H1) DAPG IgG1 2+1 (Fc-DD-VL), named muFAP-4-1BB (bispecific antibody)
heavy 1: DVQLVESGGGLVQPGRSLKLSCAASGFIFSYFDMAWVRQAPTKGLEWVASISPSGDIPYYRDSVKGRFTVSRENAKSSLYLQMDSLRSEDTATYYCARRSYGGYSELDYWGQGVMVTVSSAKTTPPSVYPLAPGSAAQTNSMVTLGCLVKGYFPEPVTVTWNSGSLSSGVHTFPAVLQSDLYTLSSSVTVPSSTWPSQTVTCNVAHPASSTKVDKKIVPRDCGCKPCICTVPEVSSVFIFPPKPKDVLTITLTPKVTCVVVAISKDDPEVQFSWFVDDVEVHTAQTKPREEQINSTFRSVSELPIMHQDWLNGKEFKCRVNSAAFGAPIEKTISKTKGRPKAPQVYTIPPPKEQMAKDKVSLTCMITNFFPEDITVEWQWNGQPAENYDNTQPIMDTDGSYFVYSDLNVQKSNWEAGNTFTCSVLHEGLHNHHTEKSLSHSPGGGGGSGGGGSGGGGSGGGGSEIVLTQSPGTLSLSPGERATLSCRASQSVSRSYLAWYQQKPGQAPRLLIIGASTRATGIPDRFSGSGSGTDFTLTISRLEPEDFAVYYCQQGQVIPPTFGQGTKVEIK
heavy 2: DVQLVESGGGLVQPGRSLKLSCAASGFIFSYFDMAWVRQAPTKGLEWVASISPSGDIPYYRDSVKGRFTVSRENAKSSLYLQMDSLRSEDTATYYCARRSYGGYSELDYWGQGVMVTVSSAKTTPPSVYPLAPGSAAQTNSMVTLGCLVKGYFPEPVTVTWNSGSLSSGVHTFPAVLQSDLYTLSSSVTVPSSTWPSQTVTCNVAHPASSTKVDKKIVPRDCGCKPCICTVPEVSSVFIFPPKPKDVLTITLTPKVTCVVVAISKDDPEVQFSWFVDDVEVHTAQTKPREEQINSTFRSVSELPIMHQDWLNGKEFKCRVNSAAFGAPIEKTISKTKGRPKAPQVYTIPPPKKQMAKDKVSLTCMITNFFPEDITVEWQWNGQPAENYKNTQPIMKTDGSYFVYSKLNVQKSNWEAGNTFTCSVLHEGLHNHHTEKSLSHSPGGGGGSGGGGSGGGGSGGGGSEVQLLESGGGLVQPGGSLRLSCAASGFTFSSHAMSWVRQAPGKGLEWVSAIWASGEQYYADSVKGRFTISRDNSKNTLYLQMNSLRAEDTAVYYCAKGWLGNFDYWGQGTLVTVSS
light: DIQMTQSPASLSASLEEIVTITCQASQDIGNWLAWYHQKPGKSPQLLIYGTSSLADGVPSRFSGSSSGSQYSLKISRLQVEDIGIYYCLQAYGAPWTFGGGTKLELKRADAAPTVSIFPPSSEQLTSGGASVVCFLNNFYPKDINVKWKIDGSERQNGVLNSWTDQDSKDSTYSMSSTLTLTKDEYERHNSYTCEATHKTSTSPIVKSFNRNEC
notes: Mouse IgG1 DAPG (D265A, P329G) with DDKK heterodimerisation; It has two anti-mouse-4-1BB Fabs (MU137-1) and one anti-FAP (28H1) VH/VL fused to the Fc C-termini; also called mouse surrogate muFAP-4-1BB; murine bispecific FAP-4-1BB antibody
